In assay [1] the target is T1, B-cell CLL/lymphoma 2 (Bcl-2) (human, UniProt P10415 1-239).
T1 construct: Used as endogenous Bcl-2 (HeLa, BT-549) or from a transfected Bcl-2 construct; also called Bch 2; endogenous Bcl-2
Description: immunoprecipitation of transfected HeLa lysates with anti-Bcl-2 antibody, Western blot with anti-ARTS (FIG. 11A). (In general: Immunoblotting shows a protein as a band on a membrane.)

The target of assay [2] is T2, X-linked inhibitor of apoptosis protein (XIAP) (human, UniProt P98170 1-497).
T2 construct: Endogenous XIAP in cell lysates; also called IAP3; BIRC
T2 sequence (P98170 whole entry): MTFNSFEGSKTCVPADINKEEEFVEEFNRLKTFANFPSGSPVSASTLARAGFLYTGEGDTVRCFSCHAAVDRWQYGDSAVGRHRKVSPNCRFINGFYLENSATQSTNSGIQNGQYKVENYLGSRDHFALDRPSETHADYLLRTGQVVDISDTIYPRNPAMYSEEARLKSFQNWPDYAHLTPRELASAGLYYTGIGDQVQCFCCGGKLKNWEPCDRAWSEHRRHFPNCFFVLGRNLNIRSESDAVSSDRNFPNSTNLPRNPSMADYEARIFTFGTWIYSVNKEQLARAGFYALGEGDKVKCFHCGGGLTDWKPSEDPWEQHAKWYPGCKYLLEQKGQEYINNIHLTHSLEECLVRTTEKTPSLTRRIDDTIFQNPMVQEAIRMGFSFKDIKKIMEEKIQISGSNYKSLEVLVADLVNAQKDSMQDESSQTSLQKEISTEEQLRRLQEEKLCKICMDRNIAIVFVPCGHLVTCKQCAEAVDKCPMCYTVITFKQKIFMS
Description: IP of the mitochondrial fraction with anti-Bcl-2 antibody, Western blot (FIG. 4E). The protocol:
Mitochondrial fraction was immunoprecipitated using anti-Bcl-2 antibody. The precipitate was analyzed by Western blotting.

The target in assay [3] is T3, B-cell lymphoma-extra large (Bcl-xL) (human, UniProt Q07817 1-233).
T3 construct: also called Bch xL
T3 sequence (Q07817 whole entry G70A): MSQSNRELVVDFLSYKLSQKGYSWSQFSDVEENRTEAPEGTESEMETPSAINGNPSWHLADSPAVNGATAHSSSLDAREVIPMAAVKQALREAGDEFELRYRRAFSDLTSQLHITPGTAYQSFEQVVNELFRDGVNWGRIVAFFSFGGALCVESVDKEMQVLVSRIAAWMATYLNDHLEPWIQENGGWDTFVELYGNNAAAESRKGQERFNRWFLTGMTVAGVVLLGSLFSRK
Description: IP with monoclonal anti-ARTS antibody from HeLa wt lysate, Western blot (FIG. 9); binding still seen after 24 h of ABT-263.

The target of assay [4] is T2, X-linked inhibitor of apoptosis protein …. Description: IP with anti-ARTS monoclonal antibody from COS-7 cells transfected with the 6-Myc-ARTS construct; the partner is endogenous in COS-7 (FIG. 4B). How it is done: FIG. 4B. […] The precipitate was analyzed by Western blotting.

T1 sequence (P10415 whole entry): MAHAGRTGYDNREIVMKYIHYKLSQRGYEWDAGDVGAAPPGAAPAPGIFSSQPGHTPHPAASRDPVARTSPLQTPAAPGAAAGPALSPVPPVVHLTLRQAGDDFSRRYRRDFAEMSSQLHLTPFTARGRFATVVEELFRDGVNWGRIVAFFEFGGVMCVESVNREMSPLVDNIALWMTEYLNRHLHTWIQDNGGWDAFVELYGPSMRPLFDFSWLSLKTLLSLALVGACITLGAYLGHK

B1: 128 amino acids N' terminus deletion mutated ARTS (other)
chain: MVAGESGLGKSTLVNSLFLTDLYRDRKLLGAEERIMQTVEITKHAVDIEEKGVRLRLTIVDTPGFGDAVNNTECWKPVAEYIDQQFEQYFRDESGLNRKNIQDNRVHCCLYFISPFGHGYGPSLRLLAPPGAVKGTGQEHQGQGCH
Regarding B1, in assay [1], the binding result is reported as “no binding”.

B2: Apoptosis Related Protein in the TGF-beta Signaling Pathway (ARTS) (other)
chain: MIKRFLEDTTDDGELSKFVKDFSGNASCHPPEAKTWASRPQVPEPRPQAPDLYDDDLEFRPPSRPQSSDNQQYFCAPAPLSPSARPRSPWGKLDPYDSSEDDKEYVGFATLPNQVHRKSVKKGFDFTLMVAGESGLGKSTLVNSLFLTDLYRDRKLLGAEERIMQTVEITKHAVDIEEKGVRLRLTIVDTPGFGDAVNNTECWKPVAEYIDQQFEQYFRDESGLNRKNIQDNRVHCCLYFISPFGHGYGPSLRLLAPPGAVKGTGQEHQGQGCH
notes: also called FL ARTS; full length ARTS
As for B2, the binding result in assay [2] and in assay [3] was “binds” each time.

B3: 6-Myc-ARTS (other)
chain: MIKRFLEDTTDDGELSKFVKDFSGNASCHPPEAKTWASRPQVPEPRPQAPDLYDDDLEFRPPSRPQSSDNQQYFCAPAPLSPSARPRSPWGKLDPYDSSEDDKEYVGFATLPNQVHRKSVKKGFDFTLMVAGESGLGKSTLVNSLFLTDLYRDRKLLGAEERIMQTVEITKHAVDIEEKGVRLRLTIVDTPGFGDAVNNTECWKPVAEYIDQQFEQYFRDESGLNRKNIQDNRVHCCLYFISPFGHGYGPSLRLLAPPGAVKGTGQEHQGQGCH
notes: Expressed by transient transfection in COS-7 cells; also called pSC2-6Myc ARTS; not shown: 6xMyc tag of pSC2-6Myc
For B3, in assay [4], the binding result is recorded as “binds”.

The record behind these values is patent US20150018285A1 (CARMEL HAIFA UNIVERSITY ECONOMIC, published 2015).
